Assay results published in patent US20260209352A1 (Adimab, published 2026).
Positions count from the first letter of the chain named.

B1: ADI-42594 (antibody, V domains shown)
VH: QVQLVQSGAEVKKPGASVKVSCKASGFNIKDYYMHWVRQAPGQRLEWIGWIDLENANTVYDAKFQGRVTITRDTSASTAYMELSSLRSEDTAVYYCARDAYGRYFYDVWGQGTLVTVSS
VL: DIVMTQSPDSLAVSLGERATINCKSSQSLLNARTGKNYLAWYQQKPGQPPKLLIYWASTRESGVPDRFSGSGSGTDFTLTISSLQAEDVAVYYCKQSYFRRTFGGGTKVEIK
notes: also called Ab1
B2: ADI-46378 (antibody, V domains shown)
VH: B1 VH with T78A
VL: B1 VL with G35R, Q48R, K95V
notes: also called Ab40
B3: ADI-45959 (antibody, V domains shown)
VH: B1 VH
VL: B1 VL with T5S, E61S, K95V
notes: also called Ab13
B4: ADI-46366 (antibody, V domains shown)
VH: B1 VH with R103Q
VL: B1 VL with K95V
notes: also called Ab50
B5: ADI-46359 (antibody, V domains shown)
VH: B1 VH with R103Q
VL: B1 VL with K95T
notes: also called Ab42
B6: ADI-45975 (antibody, V domains shown)
VH: B1 VH with R103Q
VL: B1 VL with G35R
notes: also called Ab11
B7: ADI-46357 (antibody, V domains shown)
VH: B1 VH
VL: B1 VL with K95A
notes: also called Ab30
B8: ADI-45985 (antibody, V domains shown)
VH: B1 VH
VL: B1 VL with S25T, G35N, K95V
notes: also called Ab22
B9: ADI-42596 (antibody, V domains shown)
VH: B1 VH
VL: B1 VL with G35R
notes: also called Ab2

target: Human CD3εδ-Fc (human) (UniProt P04234); assay: Biacore SPR, monovalent KD, biotinylated human CD3εδ-Fc
Sequence (chain, as listed by the source mutant, chain 1 of 2): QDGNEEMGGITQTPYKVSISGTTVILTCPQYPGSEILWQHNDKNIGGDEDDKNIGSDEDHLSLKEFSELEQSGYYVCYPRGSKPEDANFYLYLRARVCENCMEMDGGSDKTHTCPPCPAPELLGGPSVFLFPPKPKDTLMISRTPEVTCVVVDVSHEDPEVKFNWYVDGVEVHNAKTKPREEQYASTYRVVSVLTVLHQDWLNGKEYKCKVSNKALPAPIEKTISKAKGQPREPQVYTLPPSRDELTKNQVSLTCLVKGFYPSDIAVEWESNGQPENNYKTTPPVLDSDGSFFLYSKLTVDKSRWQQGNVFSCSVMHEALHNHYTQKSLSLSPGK
Sequence (P04234 22-105, stated change not applied, chain 2 of 2): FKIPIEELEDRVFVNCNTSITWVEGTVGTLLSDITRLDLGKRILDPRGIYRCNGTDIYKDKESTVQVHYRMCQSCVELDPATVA

Kd [nM]	Binder
0.47	B1
0.12	B2
0.12	B3
0.23	B4
0.22	B5
0.21	B6
0.25	B7

target: T1, Cynomolgus CD3 on Cyno CD3+ Jurkat cells (cynomolgus, UniProt Q95LI5 22-198); assay: cell binding, cyno CD3+ Jurkat cells
T1 construct: whole, on cells; CD3 on cells; also called cCD3
T1 sequence (Q95LI5 22-198): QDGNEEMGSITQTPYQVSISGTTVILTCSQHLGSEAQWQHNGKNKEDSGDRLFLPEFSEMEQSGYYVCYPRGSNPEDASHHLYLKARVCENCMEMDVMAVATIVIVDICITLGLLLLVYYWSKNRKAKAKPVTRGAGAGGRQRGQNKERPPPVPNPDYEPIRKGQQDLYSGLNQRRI

Cell Binding Fold Over Background (FOB)	Binder
16	B1
30	B2
30	B3
32	B4
28	B5
17	B6
20	B7

target: Human CD3εδ-Fc (human) (UniProt P04234); assay: KD of scFv-Fc or IgG on human CD3εδ-Fc; instrument not given

Kd [nM]	Binder
0.2	B1
0.08	B8
0.92	B2
0.13	B3
0.93	B4
0.89	B5
0.067	B6
0.16	B9
0.97	B7

target: T2, Human CD3 on Human CD3+ Jurkat cells (human, UniProt P07766 23-207); assay: cell binding hCD3, fold over background
T2 construct: whole, on cells; CD3 complex on cells; also called hCD3
T2 sequence (P07766 23-207): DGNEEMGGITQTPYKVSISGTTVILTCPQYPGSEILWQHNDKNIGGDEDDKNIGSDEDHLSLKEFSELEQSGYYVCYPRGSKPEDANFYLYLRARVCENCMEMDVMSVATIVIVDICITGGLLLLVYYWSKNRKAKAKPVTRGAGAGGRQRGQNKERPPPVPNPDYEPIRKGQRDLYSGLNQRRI

Cell Binding hCD3 (FOB)	Binder
36	B1
21	B8
22	B2
19	B3
43	B4
43	B5
86	B6
29	B9
24	B7

target: T2, Human CD3 on Human CD3+ Jurkat cells; assay: cell binding, human CD3+ Jurkat cells

Cell Binding Fold Over Background (FOB)	Binder
14	B1
17	B2
18	B3
16	B4
15	B5
10	B6
13	B7

target: Cyno CD3εδ-Fc (cynomolgus) (UniProt Q95LI8); assay: KD of scFv-Fc or IgG on cyno CD3εδ-Fc; instrument not given
Sequence (chain, as listed by the source mutant, chain 1 of 2): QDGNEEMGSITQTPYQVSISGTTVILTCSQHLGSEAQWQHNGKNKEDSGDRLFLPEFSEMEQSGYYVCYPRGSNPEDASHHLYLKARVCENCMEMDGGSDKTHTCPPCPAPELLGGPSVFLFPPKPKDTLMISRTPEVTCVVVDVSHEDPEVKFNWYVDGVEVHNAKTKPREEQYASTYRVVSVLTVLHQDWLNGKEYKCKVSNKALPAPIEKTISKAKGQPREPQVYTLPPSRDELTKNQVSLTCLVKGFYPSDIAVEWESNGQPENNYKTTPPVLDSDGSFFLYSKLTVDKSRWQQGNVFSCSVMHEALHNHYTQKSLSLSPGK
Sequence (Q95LI8 22-105, stated change not applied, chain 2 of 2): as the sequence (P04234 22-105, stated change not applied, chain 2 of 2) above, with I5V, N15K, I20V, S32T, D33N, I34N, T64A, S74N, V83L counted along it

Kd [nM]	Binder
2	B1
1.2	B8
1.7	B3
1.4	B6
2.4	B9

target: T1, Cynomolgus CD3 on Cyno CD3+ Jurkat cells; assay: cell binding cCD3, fold over background

Cell Binding cCD3 (FOB)	Binder
122	B1
23	B8
91	B2
112	B3
108	B4
102	B5
142	B6
46	B9
80	B7

target: Human CD3εδ-Fc (human) (UniProt P04234); assay: KD of scFv-Fc or IgG on human CD3εδ-Fc; instrument not given; second row for this clone

Kd [nM]	Binder
1.1	B9
